The test concerns the target T1, his-tagged NCOA4 (383–522nd) recombinant protein, WT (human), Q13772.
T1 chain: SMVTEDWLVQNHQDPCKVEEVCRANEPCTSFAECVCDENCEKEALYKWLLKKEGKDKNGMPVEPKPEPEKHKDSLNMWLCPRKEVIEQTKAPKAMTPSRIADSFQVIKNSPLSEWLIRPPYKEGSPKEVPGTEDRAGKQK
Kind of test: nonreducing gel electrophoresis; purified his-tagged NCOA4 (383–522nd) WT or mutants on a nonreducing gel, with or without β-ME (10 mM) or DTT (5 mM); the reductants converted the dimer into monomers. The settings on record: remark: other sources report otherwise.

For 1 molecule, stoichiometry N results are on record in article PMC10831263.

A word on the stoichiometry N: it is a count of units in the complex or per binding partner.

B1: his-tagged NCOA4 (383–522nd) recombinant protein, WT, Q13772-1 383-522 (domain or fragment)
chain: T1 chain
For the molecule B1, the stoichiometry N came to 2.
